Results taken from PMC6826779, “Bis-allylic Deuterated DHA Alleviates Oxidative Stress in Retinal Epithelial Cells” (Antioxidants, 2019).

How the values were obtained:
[1] = substrate: CC/C=C\C/C=C\C/C=C\C/C=C\C/C=C\C/C=C\CCC(=O)O; assay: Kinetics parameters of 15s-LOX (UV 270 nm, Michaelis-Menten); type: biochemical, Glycine max (soybean); conditions: other: 15s-LOX, substrate 0.02-0.2 mM, borate buffer pH 9, 20 °C
Procedure: (§1) The activity of 15-sLOX was monitored on a Beckman Coulter DU730 Life Sciences UV-visible spectrometer at a wavelength of 270 nm monitoring the conjugated triene structure in the dihydroxylation products. For the measurements a reaction mixture of DHA or deuterated DHA (0.02 mM; 0.04 mM; 0.1 mM and 0.2 mM) was prepared in 750 µL sodium borate buffer (50 mM, pH 9) by ultrasonification for 10 s. The reaction was subsequently initiated by the addition of 10 µL 15-sLOX (4 mg/mL) to make a total volume of 760 µL in a Hellma CEL2056 quartz cuvette with 1 cm path length (20 °C). The initial reaction rates (V(0)), derived from the recorded UV-absorbance using the law of Lambert-Beer (molar extinction coefficient = 40,000), were plotted against the respective DHA concentrations and fitted to Michaelis-Menten kinetics in GraphPad Prism 7.0. All V(0) values were determined in triplicate and the average of three independent experiments was plotted against the substrate concentrations to yield Michaelis-Menten kinetics.

[2] = substrate: CCC=CCC=CCC=CCC=CCC=CCC=CCCC(=O)O; assay: as above; type: biochemical, Glycine max (soybean); conditions: other: 15s-LOX, substrate 0.02-0.2 mM, borate buffer pH 9, 20 °C
Procedure: as §1

B1: 15-sLOX (Glycine max) (protein)
chain: MFSAGHKIKGTVVLMPKNELEVNPDGSAVDNLNAFLGRSVSLQLISATKADAHGKGKVGKDTFLEGINTSLPTLGAGESAFNIHFEWDGSMGIPGAFYIKNYMQVEFFLKSLTLEAISNQGTIRFVCNSWVYNTKLYKSVRIFFANHTYVPSETPAPLVSYREEELKSLRGNGTGERKEYDRIYDYDVYNDLGNPDKSEKLARPVLGGSSTFPYPRRGRTGRGPTVTDPNTEKQGEVFYVPRDENLGHLKSKDALEIGTKSLSQIVQPAFESAFDLKSTPIEFHSFQDVHDLYEGGIKLPRDVISTIIPLPVIKELYRTDGQHILKFPQPHVVQVSQSAWMTDEEFAREMIAGVNPCVIRGLEEFPPKSNLDPAIYGDQSSKITADSLDLDGYTMDEALGSRRLFMLDYHDIFMPYVRQINQLNSAKTYATRTILFLREDGTLKPVAIELSLPHSAGDLSAAVSQVVLPAKEGVESTIWLLAKAYVIVNDSCYHQLMSHWLNTHAAMEPFVIATHRHLSVLHPIYKLLTPHYRNNMNINALARQSLINANGIIETTFLPSKYSVEMSSAVYKNWVFTDQALPADLIKRGVAIKDPSTPHGVRLLIEDYPYAADGLEIWAAIKTWVQEYVPLYYARDDDVKNDSELQHWWKEAVEKGHGDLKDKPWWPKLQTLEDLVEVCLIIIWIASALHAAVNFGQYPYGGLIMNRPTASRRLLPEKGTPEYEEMINNHEKAYLRTITSKLPTLISLSVIEILSTHASDEVYLGQRDNPHWTSDSKALQAFQKFGNKLKEIEEKLVRRNNDPSLQGNRLGPVQLPYTLLYPSSEEGLTFRGIPNSISI
Km ([1]; substrate D2-DHA): 36.3 µM
Km ([1]; substrate Natural DHA): 68 µM
Km [2]: 57.4 µM
